{"source": "patent EP4755920A1", "molecular_target": "hIL4Rα-ECD(26-232)-mFc (human)", "test": "competition ELISA, hIL4R-ECD-mFc captured by anti-mFc, biotinylated human IL4 as competitor", "data": [{"substance": "Isotype (antibody)", "values": [{"measurement": "IC50", "value": 9.95, "unit": "nM"}]}]}
